In the assay the target is CD33 (UniProt P20138).

Kd data for one substance are collected here from publication PMC7484162.

The Kd is a measure of binding affinity in units of concentration.

Sequence of UniProt P20138 (P20138 18-364): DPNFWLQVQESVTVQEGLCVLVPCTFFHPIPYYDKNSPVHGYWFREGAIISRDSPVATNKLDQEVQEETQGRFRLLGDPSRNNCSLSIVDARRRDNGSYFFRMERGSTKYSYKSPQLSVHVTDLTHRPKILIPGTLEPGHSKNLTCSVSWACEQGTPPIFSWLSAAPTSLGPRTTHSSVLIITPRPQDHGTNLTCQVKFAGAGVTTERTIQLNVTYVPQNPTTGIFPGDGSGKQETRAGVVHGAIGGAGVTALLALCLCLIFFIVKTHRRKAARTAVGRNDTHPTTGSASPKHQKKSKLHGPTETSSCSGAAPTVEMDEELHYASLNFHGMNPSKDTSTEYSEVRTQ

“cam16-wt15–33 TriKE (second-generation Tri-specific Killer Engager) (from UniProt P40933 49-162)”: the Kd was 25.6 nM.
